This assay addresses TNFR2 on human cells (Kym-1 cells; human CD3+ T cells) (human) (UniProt P20333). Kind of assay: cell-based or functional assay.

Sequence of TNFR2 on human cells (Kym-1 cells; human CD3+ T cells) (human) (P20333 23-461): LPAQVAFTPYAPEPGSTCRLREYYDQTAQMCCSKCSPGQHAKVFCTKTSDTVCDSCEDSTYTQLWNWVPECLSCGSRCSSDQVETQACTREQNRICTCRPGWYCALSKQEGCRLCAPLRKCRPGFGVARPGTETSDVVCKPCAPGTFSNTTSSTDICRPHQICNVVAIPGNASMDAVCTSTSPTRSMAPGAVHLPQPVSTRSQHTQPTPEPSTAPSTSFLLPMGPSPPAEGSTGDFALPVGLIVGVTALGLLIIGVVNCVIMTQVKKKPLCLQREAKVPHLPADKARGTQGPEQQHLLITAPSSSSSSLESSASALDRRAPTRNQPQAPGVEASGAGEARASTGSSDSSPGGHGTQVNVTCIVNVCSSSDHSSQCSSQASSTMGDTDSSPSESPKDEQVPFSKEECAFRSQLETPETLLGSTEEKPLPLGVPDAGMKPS

For scTNFR2-Fc-scTNFR2 (Fc fusion), the EC50 of Kym-1 cell viability (crystal violet assay after 16 h) stood at 8.5 µM.

For VASP-scTNFR2 (ligand), the EC50 of Kym-1 cell viability (crystal violet assay after 16 h) worked out at 7 µM.

For “human single-chain TNF variant (D143N/A145R, scTNFR2) (from UniProt Q8HZD9 77-232) (ligand)”, the EC50 values (nM) of cell death induction using Kym-1 cells came out at 0.347 nM.

Values taken from patent US20210395323A1.
